Experimental data as given in patent US20220033501A1 (SHANGHAI PHARMAEXPLORER, published 2022).

T1: monkey TIM-3 on CHOK1 stable cell line (CHOK1-cTIM-3) (monkey)
T1 chain: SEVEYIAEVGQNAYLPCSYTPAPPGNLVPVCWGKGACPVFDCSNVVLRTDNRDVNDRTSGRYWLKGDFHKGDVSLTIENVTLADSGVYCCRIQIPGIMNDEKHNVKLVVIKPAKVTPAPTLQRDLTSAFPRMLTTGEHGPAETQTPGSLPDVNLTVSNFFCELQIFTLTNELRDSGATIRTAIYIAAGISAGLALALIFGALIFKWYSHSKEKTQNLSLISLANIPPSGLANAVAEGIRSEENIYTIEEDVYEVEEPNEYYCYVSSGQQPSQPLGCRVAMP

T2: murine TIM-3 protein with hFc tag (mTIM-3-hFc protein) (mouse; human, UniProt Q8VIM0 29-191)
T2 construct: Made in HEK293 cells; also called mouse TIM-3 extracellular domain protein; not shown: human IgG Fc fragment (hFc) of the pCpC vector
T2 chain: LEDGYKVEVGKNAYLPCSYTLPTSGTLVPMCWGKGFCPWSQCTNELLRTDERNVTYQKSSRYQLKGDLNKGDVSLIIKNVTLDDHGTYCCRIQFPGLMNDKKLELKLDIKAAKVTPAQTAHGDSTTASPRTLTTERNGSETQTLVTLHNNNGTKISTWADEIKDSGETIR

T3: TIM-3 protein on human peripheral blood mononuclear lymphocytes (PBMC) (human, UniProt Q8TDQ0 22-301)
T3 sequence: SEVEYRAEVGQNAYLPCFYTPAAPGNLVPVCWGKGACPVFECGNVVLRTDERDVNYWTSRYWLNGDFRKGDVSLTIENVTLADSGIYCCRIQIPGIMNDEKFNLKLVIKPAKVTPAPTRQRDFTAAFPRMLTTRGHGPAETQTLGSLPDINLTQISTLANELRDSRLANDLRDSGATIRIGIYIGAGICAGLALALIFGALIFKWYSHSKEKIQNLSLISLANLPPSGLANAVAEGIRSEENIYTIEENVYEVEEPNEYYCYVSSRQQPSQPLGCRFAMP


What was measured:
[1] = biological target: T1, monkey TIM-3 on CHOK1 stable cell line …; assay: FACS, CHOK1-cTIM-3 cells, 0 nM antibody
Text: (§1) The pIRES plasmid containing the full-length nucleotide sequence encoding human TIM-3 as described in Example 1 was transfected into CHOK1 cell line to obtain a CHOK1 stable cell line containing human TIM-3 (herein referred to as CHOK1-hTIM-3 stable cell line). The pIRES plasmid containing the full-length gene of monkey TIM-3 was transfected into CHOK1 cell line to construct a CHOK1 stable cell line containing monkey TIM-3 (herein referred to as CHOK1-cTIM-3 stable cell line). The CHOK1-hTIM-3 stable cell line and CHOK1-cTIM-3 stable cell line were expanded to a confluence of 90% in a T-75 cell culture flask. The medium was aspirated, and the cells were washed with HBSS (Hanks' Balanced Salt Solution) 1-2 times, and then treated with an enzyme-free cell dissociation solution (Versene solution: Life technology) and the cells were collected. The cells were washed with HBSS buffer for 1-2 times. After counted, the cells were diluted with HBSS to 1-2×10⁶ cells per ml, added with 1% goat serum blocking solution, incubated on ice for 20-30 minutes, and then washed with HBSS by centrifugation 2 times. The collected cells were suspended in the FACS buffer (HBSS+1% BSA) to 2×10⁶ cells/ml, added as 100 microliters per well to a 96-well FACS reaction plate, added with 100 microliters per well of the antibody sample to be tested, incubated on ice for 1-2 hours. The plate was washed twice with the FACS buffer by centrifugation, added with 100 microliters of fluorescent (Alexa 488)-labeled secondary antibodies per well, and incubated on ice for 0.5-1.0 hours. The plate was washed 2-3 times with FACS buffer by centrifugation, added with 100 μl fixative solution (4% Paraformaldehyde) per well to suspend the cells. 5-10 minutes later, it was washed 1-2 times with FACS buffer by centrifugation. The cells were suspended with 100 microliters of FACS buffer, FACS (FACSCalibur, BD) was used for detection and the results were analyzed. The results are shown in FIGS. 7 and 8, Tables 7 and 8, wherein the IgG control is rat IgG, and the data in the table are the average fluorescence intensity values of the cell populations measured by MFI.

[2] = biological target: T1, monkey TIM-3 on CHOK1 stable cell line …; assay: FACS, CHOK1-cTIM-3 cells, 200 nM antibody
Text: as §1

[3] = biological target: T1, monkey TIM-3 on CHOK1 stable cell line …; assay: FACS, CHOK1-cTIM-3 cells, 40 nM antibody
Text: as §1

[4] = biological target: T1, monkey TIM-3 on CHOK1 stable cell line …; assay: FACS, CHOK1-cTIM-3 cells, 0.064 nM antibody
Text: as §1

[5] = biological target: T1, monkey TIM-3 on CHOK1 stable cell line …; assay: FACS, CHOK1-cTIM-3 cells, 1.6 nM antibody
Text: as §1

[6] = biological target: T1, monkey TIM-3 on CHOK1 stable cell line …; assay: FACS, CHOK1-cTIM-3 cells, 0.32 nM antibody
Text: as §1

[7] = biological target: T1, monkey TIM-3 on CHOK1 stable cell line …; assay: FACS, CHOK1-cTIM-3 cells, 8 nM antibody
Text: as §1

[8] = biological target: T1, monkey TIM-3 on CHOK1 stable cell line …; assay: FACS, CHOK1-cTIM-3 cells, 0.013 nM antibody
Text: as §1

[9] = biological target: T2, murine TIM-3 protein with hFc tag …; assay: ELISA, coated mTIM-3-hFc
[10] = biological target: T3, TIM-3 protein on human peripheral blood …; assay: cell-based or functional assay

Row | Binder | Mean fluorescence intensity [1] | Mean fluorescence intensity [2] | Mean fluorescence intensity [3] | Mean fluorescence intensity [4] | Mean fluorescence intensity [5] | Mean fluorescence intensity [6] | Mean fluorescence intensity [7] | Mean fluorescence intensity [8] | binding result [9] | further results
1 | 18D2H2 TIM-3 antibody purified from hybridoma supernatant (chimeric antibody of Example 2) (antibody, V domains shown) VH: EVQLVESGGDLVQPGGSLRLSCAASGFTFSTYWMTWVRQAPGRGLEWVANIKQDGSAKYYVDSVKGRFTLSRDDAKNSLYLQMNSLRAEDTAVYYCARGSNWFDYWGQGTLVTVSS VL: ETVMTQSPATLSVSPGERATLSCRANQNVYSNLAWYQQKPGQAPRLLIYDASTRATGFPARFSGSGSGTEFTLTISSLQSEDFAVYYCQQYNNWPLTFGGGTKVEIK | 3.2 | 203 | 186 | 6.9 | 35.8 | 14.4 | 92.2 | 4.3 |  | 
2 | 39E5H1 fully human TIM-3 antibody (human IgG4, kappa) (antibody, V domains shown) VH: EVQLVESGGGLVQPGGSLRLSCAASGFTFSSYWMSWVRQAPGKGLEWVANIKRGGSERYYVDSVKGRFTISGDNAKNSVYLQMNSLRAEDTAVYYCARGSNWFDPWGQGTLVTVSS VL: ETVMTQSPAILSVSPGERATLSCRASQSVYSNLAWYQQKLGQAPRLLIYDASTRATGIPARFSGSGSGTEFTLTISSLQSEDFAVYYCQQYNNWPITFGQGTRLEIK |  |  |  |  |  |  |  |  | no binding (tested: 66.667 nM) | 
3 | 57F4E5 TIM-3 antibody purified from hybridoma supernatant (chimeric antibody of Example 2) (antibody, V domains shown) VH: EVQLVESGGGLVQPGGSLRLSCAASGFTFSSYWMSWVRQAPGKGLEWVANIKQDGSEKYYVDSVKGRFTISRDSAKNSLYLQMNSLRAEDTAMYFCARDSNFFDYWGQGTLVTVSS VL: ETVMTQSPATLSVSPGERATLSCRASQSVSSNLAWYQRKPGQAPRLLIYFSSTRATGIPARFSGSGSGTEFTLTISSLQSEDFAVYYCQQYNNWPLTFGGGTKVEIK | 3.2 | 675 | 699 | 59.6 | 460 | 185 | 704 | 22.2 |  | 
4 | 57F4E5 fully human TIM-3 antibody (human IgG4, kappa) (antibody, V domains shown) VH: EVQLVESGGGLVQPGGSLRLSCAASGFTFSSYWMSWVRQAPGKGLEWVANIKQDGSEKYYVDSVKGRFTISRDSAKNSLYLQMNSLRAEDTAMYFCARDSNFFDYWGQGTLVTVSS VL: ETVMTQSPATLSVSPGERATLSCRASQSVSSNLAWYQRKPGQAPRLLIYFSSTRATGIPARFSGSGSGTEFTLTISSLQSEDFAVYYCQQYNNWPLTFGGGTKVEIK |  |  |  |  |  |  |  |  | no binding (tested: 66.667 nM) | 
5 | 7A4F10 TIM-3 antibody purified from hybridoma supernatant (chimeric antibody of Example 2) (antibody, V domains shown) VH: EVQLLESGGGLVQPGGSLRLSCAASGFTFRTHLISWVRQAPGKGLEWVAAITGSGGSTYYADSVKGRFIISRDNSKNTLFLQMNSLRAEDTAVYYCAKDGGSGSYDDFWGQGTLVTVSS VL: ETVLTQSPVTLSLSPGERATLSCRASQSVGSYLAWYQQKPGQAPRLLIYDASNRATGIPARFSGSGSGTDFTLTISSLEPEDFAVYYCQQRSNWPPTFGQGTKVEIK | 3.2 | 147 | 163 | 5.9 | 29.1 | 11.3 | 90 | 4.1 |  | IFN production; antibody 0.001 µg/ml (4th head as printed), N = 1 [10]: 672 pg/mL; IFN production; antibody 0.001 µg/ml (4th head as printed), N = 2 [10]: 719 pg/mL; IFN production; antibody 0.001 µg/ml (5th head as printed), N = 1 [10]: 666 pg/mL; IFN production; antibody 0.001 µg/ml (5th head as printed), N = 2 [10]: 756 pg/mL; IFN production; antibody 0.1 µg/ml, N = 1 [10]: 758 pg/mL; IFN production; antibody 0.1 µg/ml, N = 2 [10]: 873 pg/mL; IFN production; antibody 1 µg/ml, N = 1 [10]: 1010 pg/mL; IFN production; antibody 1 µg/ml, N = 2 [10]: 1160 pg/mL; IFN production; antibody 10 µg/ml, N = 1 [10]: 848 pg/mL; IFN production; antibody 10 µg/ml, N = 2 [10]: 1010 pg/mL
6 | 215A8F2 TIM-3 antibody purified from hybridoma supernatant (chimeric antibody of Example 2) (antibody, V domains shown) VH: QVQLQQWGAGLLKPSETLSLTCTVYGGSFSGYYWNWIRQPPGKGLEWLGEINHSGSTNYNPSLKRRVTISVDTSKNQFSLKLSSVTAADTAVYYCARVYYYGPFDFWGQGTLVTVSS VL: not shown | 3.2 | 961 | 976 | 34.7 | 330 | 108 | 733 | 13.6 |  | IFN production; antibody 0.001 µg/ml (4th head as printed), N = 1 [10]: 782 pg/mL; IFN production; antibody 0.001 µg/ml (4th head as printed), N = 2 [10]: 753 pg/mL; IFN production; antibody 0.001 µg/ml (5th head as printed), N = 1 [10]: 791 pg/mL; IFN production; antibody 0.001 µg/ml (5th head as printed), N = 2 [10]: 741 pg/mL; IFN production; antibody 0.1 µg/ml, N = 1 [10]: 840 pg/mL; IFN production; antibody 0.1 µg/ml, N = 2 [10]: 901 pg/mL; IFN production; antibody 1 µg/ml, N = 1 [10]: 1020 pg/mL; IFN production; antibody 1 µg/ml, N = 2 [10]: 1070 pg/mL; IFN production; antibody 10 µg/ml, N = 1 [10]: 943 pg/mL; IFN production; antibody 10 µg/ml, N = 2 [10]: 1070 pg/mL

The next lines start with results.

Row | Mean fluorescence intensity [1] | Mean fluorescence intensity [2] | Mean fluorescence intensity [3] | Mean fluorescence intensity [4] | Mean fluorescence intensity [5] | Mean fluorescence intensity [6] | Mean fluorescence intensity [7] | Mean fluorescence intensity [8] | binding result [9] | Binder | further results
7 |  |  |  |  |  |  |  |  | no binding (tested: 66.667 nM) | 18D2H2 fully human TIM-3 antibody (human IgG4, kappa) (antibody, V domains shown) VH: EVQLVESGGDLVQPGGSLRLSCAASGFTFSTYWMTWVRQAPGRGLEWVANIKQDGSAKYYVDSVKGRFTLSRDDAKNSLYLQMNSLRAEDTAVYYCARGSNWFDYWGQGTLVTVSS VL: ETVMTQSPATLSVSPGERATLSCRANQNVYSNLAWYQQKPGQAPRLLIYDASTRATGFPARFSGSGSGTEFTLTISSLQSEDFAVYYCQQYNNWPLTFGGGTKVEIK | 
8 |  |  |  |  |  |  |  |  | no binding (tested: 66.667 nM) | 134H3G6 fully human TIM-3 antibody (human IgG4, kappa) (antibody, V domains shown) VH: EVQLVESGGGLVQPGGSLRLSCAASGFTFSNSWMTWVRQAPGKGLEWVANIKQAGTEKYYVDSVKGRFTISRDNAKNSLYLQMNSLRAEDTAVYYCNSGSNYFDYWGQGTLVTVSS VL: EIVMTQSPATLSVSPGERATLSCRARQNFYSNLAWYQQKPGQAPRLLIYGASTRATGIPARFSGSGSGTEFTLTISSLQSEDFAVYYCQQYNNWPLTFGGGTKVEIK | 
9 |  |  |  |  |  |  |  |  | no binding (tested: 66.667 nM) | 7A4F10 fully human TIM-3 antibody (human IgG4, kappa) (antibody, V domains shown) VH: EVQLLESGGGLVQPGGSLRLSCAASGFTFRTHLISWVRQAPGKGLEWVAAITGSGGSTYYADSVKGRFIISRDNSKNTLFLQMNSLRAEDTAVYYCAKDGGSGSYDDFWGQGTLVTVSS VL: ETVLTQSPVTLSLSPGERATLSCRASQSVGSYLAWYQQKPGQAPRLLIYDASNRATGIPARFSGSGSGTDFTLTISSLEPEDFAVYYCQQRSNWPPTFGQGTKVEIK | 
10 |  |  |  |  |  |  |  |  | no binding (tested: 66.667 nM) | 215A8F2 fully human TIM-3 antibody (human IgG4, kappa) (antibody, V domains shown) VH: QVQLQQWGAGLLKPSETLSLTCTVYGGSFSGYYWNWIRQPPGKGLEWLGEINHSGSTNYNPSLKRRVTISVDTSKNQFSLKLSSVTAADTAVYYCARVYYYGPFDFWGQGTLVTVSS VL: not shown | 
